Reference: FireProtDB (doi:10.1016/j.bpj.2013.08.038)
Where “and” joins values, the source holds several entries; their conditions need not be identical. Identical values can stand only once.

Details: Pseudomonas aeruginosa (strain ATCC 15692 / DSM 22644 / CIP 104116 / JCM 14847 / LMG 12228 / 1C / PRS 101 / PAO1), pH 7, CD, transition: 2, reversible: yes, whole UniProt chain shown; for denaturant m value / unfolding free energy: 25 °C, GdnHCl; for Tm / unfolding enthalpy (calorimetric): Thermal

B1: Azurin wild type, P00282 (protein)
chain: MLRKLAAVSLLSLLSAPLLAAECSVDIQGNDQMQFNTNAITVDKSCKQFTVNLSHPGNLPKNVMGHNWVLSTAADMQGVVTDGMASGLDKDYLKPDDSRVIAHTKLIGSGEKDSVTFDVSKLKEGEQYMFFCTFPGHSALMKGTLTLK
denaturant m value (Dextran 20 50 mg/ml): 4.99 kcal/mol/M
denaturant m value (Dextran 20 100 mg/ml): 4.99 kcal/mol/M and 4.87 kcal/mol/M
unfolding free energy (Dextran 20 100 mg/ml): 8.71 kcal/mol
denaturant m value (Dextran 20 150 mg/ml): 4.68 kcal/mol/M
denaturant m value (Dextran 20 200 mg/ml): 4.66 kcal/mol/M
denaturant m value (Dextran20 200 mg/ml): 4.66 kcal/mol/M
denaturant m value (Dextran 20 250 mg/ml): 4.49 kcal/mol/M
unfolding free energy (Dextran 20 250 mg/ml): 9.29 kcal/mol
denaturant m value (Dextran 20 300 mg/ml): 4.9 kcal/mol/M
unfolding free energy (Dextran 20 300 mg/ml): 9.65 kcal/mol
denaturant m value (Dextran 40 200 mg/ml): 5.11 kcal/mol/M
unfolding free energy (Dextran 40 200 mg/ml): 8.95 kcal/mol
denaturant m value (Dextran 40 250 mg/ml): 4.08 kcal/mol/M
unfolding free energy (Dextran 40 250 mg/ml): 9.5 kcal/mol
denaturant m value (Dextran 40 300 mg/ml): 4.68 kcal/mol/M
unfolding free energy (Dextran 40 300 mg/ml): 9.65 kcal/mol
denaturant m value (Dextran 70 100 mg/ml): 4.9 kcal/mol/M
unfolding free energy (Dextran 70 100 mg/ml): 8.59 kcal/mol
denaturant m value (Dextran 70 200 mg/ml): 4.73 kcal/mol/M
unfolding free energy (Dextran 70 200 mg/ml): 8.86 kcal/mol
denaturant m value (Dextran 70 300 mg/ml): 4.68 kcal/mol/M
unfolding free energy (Dextran 70 300 mg/ml): 9.65 kcal/mol
denaturant m value (Ficoll 70 50 mg/ml): 5.09 kcal/mol/M
denaturant m value (Ficoll 70 100 mg/ml): 4.97 kcal/mol/M
denaturant m value (Ficoll 70 150 mg/ml): 4.46 kcal/mol/M
denaturant m value (Ficoll 70 200 mg/ml): 4.92 kcal/mol/M
denaturant m value (Ficoll 70 250 mg/ml): 4.94 kcal/mol/M
denaturant m value (Ficoll 70 300 mg/ml): 5.16 kcal/mol/M
denaturant m value: 4.92 kcal/mol/M
Tm (Dextran 20 50 mg/ml): 64 °C
unfolding enthalpy (calorimetric) (Dextran 20 50 mg/ml): 112 kcal/mol
Tm (Dextran 20 100 mg/ml): 65 °C
unfolding enthalpy (calorimetric) (Dextran 20 100 mg/ml): 114 kcal/mol
Tm (Dextran 20 150 mg/ml): 65 °C
unfolding enthalpy (calorimetric) (Dextran 20 150 mg/ml): 115 kcal/mol
Tm (Dextran 20 200 mg/ml): 66 °C
unfolding enthalpy (calorimetric) (Dextran 20 200 mg/ml): 120 kcal/mol
Tm (Dextran20 200 mg/ml): 66 °C
Tm (Dextran 20 250 mg/ml): 67 °C
unfolding enthalpy (calorimetric) (Dextran 20 250 mg/ml): 107 kcal/mol
Tm (Dextran 40 200 mg/ml): 66 °C
Tm (Dextran 70 100 mg/ml): 65 °C
Tm (Dextran 70 200 mg/ml): 68 °C
Tm (Ficoll 70 50 mg/ml): 64 °C
unfolding enthalpy (calorimetric) (Ficoll 70 50 mg/ml): 117 kcal/mol
Tm (Ficoll 70 100 mg/ml): 64 °C
unfolding enthalpy (calorimetric) (Ficoll 70 100 mg/ml): 117 kcal/mol
Tm (Ficoll 70 150 mg/ml): 65 °C
unfolding enthalpy (calorimetric) (Ficoll 70 150 mg/ml): 118 kcal/mol
Tm (Ficoll 70 200 mg/ml): 65 °C
unfolding enthalpy (calorimetric) (Ficoll 70 200 mg/ml): 117 kcal/mol
Tm (Ficoll 70 250 mg/ml): 65 °C
unfolding enthalpy (calorimetric) (Ficoll 70 250 mg/ml): 113 kcal/mol
